Laboratory results published in PMC5241339 (2016).
Blank lines part the entries; values can stand above or below the binder they belong to.

Assays:
[1] = molecular target: T1, CD36 (His-tagged recombinant human protein, Sino Biological, Life technologies, 70-80 kDa) (human, UniProt P16671 30-439); test: SPR; recombinant 1; kd2 of two-state fit
[2] = molecular target: T1, CD36 (His-tagged recombinant human …); test: SPR; recombinant 2; kd2 of two-state fit
[3] = molecular target: T1, CD36 (His-tagged recombinant human …); test: SPR; recombinant 2; kd1 of two-state fit
[4] = molecular target: T1, CD36 (His-tagged recombinant human …); test: SPR; recombinant 1; kd1 of two-state fit
[5] = molecular target: T1, CD36 (His-tagged recombinant human …); test: SPR; kd1 of two-state fit
[6] = molecular target: T1, CD36 (His-tagged recombinant human …); test: SPR; kd2 of two-state fit
[7] = molecular target: T1, CD36 (His-tagged recombinant human …); test: SPR; native 1; kd2 of two-state fit
[8] = molecular target: T1, CD36 (His-tagged recombinant human …); test: SPR; native 1; kd1 of two-state fit
[9] = molecular target: T1, CD36 (His-tagged recombinant human …); test: SPR; native 2; kd2 of two-state fit
[10] = molecular target: T1, CD36 (His-tagged recombinant human …); test: SPR; native 2; kd1 of two-state fit

T1 sequence (P16671 30-439): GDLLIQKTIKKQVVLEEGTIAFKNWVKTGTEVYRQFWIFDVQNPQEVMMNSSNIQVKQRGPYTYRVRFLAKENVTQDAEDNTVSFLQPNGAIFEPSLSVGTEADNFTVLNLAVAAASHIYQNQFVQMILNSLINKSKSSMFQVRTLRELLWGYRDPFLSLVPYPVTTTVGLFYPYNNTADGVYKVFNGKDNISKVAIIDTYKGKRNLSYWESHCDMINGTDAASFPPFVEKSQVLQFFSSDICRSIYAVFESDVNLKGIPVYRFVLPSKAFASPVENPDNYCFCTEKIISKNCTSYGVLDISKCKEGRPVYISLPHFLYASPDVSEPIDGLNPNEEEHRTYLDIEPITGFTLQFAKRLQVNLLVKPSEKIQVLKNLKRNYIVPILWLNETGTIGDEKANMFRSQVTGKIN

koff [1]: 0.00037 s⁻¹ | koff [2]: 0.00068 s⁻¹ | koff [3]: 0.019 s⁻¹ | koff [4]: 0.0066 s⁻¹
B1: recombinant S100A12 (rS100A12) (natural protein)
chain: GPLGSMTKLEEHLEGIVNIFHQYSVRKGHFDTLSKGELKQLLTKELANTIKNIKDKAVIDEIFQGLDANQDEQVDFQEFISLVAIALKAAHYHTHKE

koff [5]: 0.014 s⁻¹ | koff [6]: 0.001 s⁻¹
B2: fluorescein-labeled rS100A12 (natural protein)
chain: GPLGSMTKLEEHLEGIVNIFHQYSVRKGHFDTLSKGELKQLLTKELANTIKNIKDKAVIDEIFQGLDANQDEQVDFQEFISLVAIALKAAHYHTHKE
modifications: fluorescein (NHS-fluorescein, 15 times molar excess; labeled residues not stated)

koff [7]: 0.00051 s⁻¹ | koff [8]: 0.0083 s⁻¹ | koff [9]: 0.00056 s⁻¹ | koff [10]: 0.0092 s⁻¹
B3: commercially available native human S100A12 protein (nS100A12) (natural protein)
chain: MTKLEEHLEGIVNIFHQYSVRKGHFDTLSKGELKQLLTKELANTIKNIKDKAVIDEIFQGLDANQDEQVDFQEFISLVAIALKAAHYHTHKE
